# Test results as given in paper PMC8113721, “The lysosomal protein ABCD4 can transport vitamin B12 across liposomal membranes in vitro” (The Journal of Biological Chemistry, 2021).
# Substitutions are numbered along the chain they refer to. In names and notes the source's numbering stands.
# B1: His-tagged human ABCD4 (natural protein)
# chain: AVAGPAPGAGARPRLDLQFLQRFLQILKVLFPSWSSQNALMFLTLLCLTLLEQFVIYQVGLIPSQYYGVLGNKDLEGFKTLTFLAVMLIVLNSTLKSFDQFTCNLLYVSWRKDLTEHLHRLYFRGRAYYTLNVLRDDIDNPDQRISQDVERFCRQLSSMASKLIISPFTLVYYTYQCFQSTGWLGPVSIFGYFILGTVVNKTLMGPIVMKLVHQEKLEGDFRFKHMQIRVNAEPAAFYRAGHVEHMRTDRRLQRLLQTQRELMSKELWLYIGINTFDYLGSILSYVVIAIPIFSGVYGDLSPAELSTLVSKNAFVCIYLISCFTQLIDLSTTLSDVAGYTHRIGQLRETLLDMSLKSQDCEILGESEWGLDTPPGWPAAEPADTAFLLERVSISAPSSDKPLIKDLSLKISEGQSLLITGNTGTGKTSLLRVLGGLWTSTRGSVQMLTDFGPHGVLFLPQKPFFTDGTLREQVIYPLKEVYPDSGSADDERILRFLELAGLSNLVARTEGLDQQVDWNWYDVLSPGEMQRLSFARLFYLQPKYAVLDEATSALTEEVESELYRIGQQLGMTFISVGHRQSLEKFHSLVLKLCGGGRWELMRIKVE
# notes: ABCD4 (ABC transporter subfamily D member 4), human; also called His-ABCD4; wildtype ABCD4; source: also reconstituted in liposomes
# B2: His-ABCD4 (Y319C) (natural protein, human)
# chain: B1 chain with Y318C
# notes: ABCD4, human, with the clinical missense mutation Y319C; Y319C is a clinical mutation reported in cobalamin deficiency; source: K. phaffii, purified and reconstituted in liposomes using the same procedure as used for His-ABCD4
# B3: His-ABCD4 (N141K) (natural protein, human)
# chain: B1 chain with N140K
# notes: ABCD4, human, with the clinical missense mutation N141K; N141K is a clinical mutation reported in cobalamin deficiency; source: K. phaffii, purified and reconstituted in liposomes using the same procedure as used for His-ABCD4
# B4: glutathione-S-transferase (GST)–tagged LMBD1 (natural protein, human, UniProt Q9NUN5 1-540, looked up)
# chain: MATSGAASAELVIGWCIFGLLLLAILAFCWIYVRKYQSRRESEVVSTITAIFSLAIALITSALLPVDIFLVSYMKNQNGTFKDWANANVSRQIEDTVLYGYYTLYSVILFCVFFWIPFVYFYYEEKDDDDTSKCTQIKTALKYTLGFVVICALLLLVGAFVPLNVPNNKNSTEWEKVKSLFEELGSSHGLAALSFSISSLTLIGMLAAITYTAYGMSALPLNLIKGTRSAAYERLENTEDIEEVEQHIQTIKSKSKDGRPLPARDKRALKQFEERLRTLKKRERHLEFIENSWWTKFCGALRPLKIVWGIFFILVALLFVISLFLSNLDKALHSAGIDSGFIIFGANLSNPLNMLLPLLQTVFPLDYILITIIIMYFIFTSMAGIRNIGIWFFWIRLYKIRRGRTRPQALLFLCMILLLIVLHTSYMIYSLAPQYVMYGSQNYLIETNITSDNHKGNSTLSVPKRCDADAPEDQCTVTRTYLFLHKFWFFSAAYYFGNWAFLGVFLIGLIVSCCKGKKSVIEGVDEDSDISDDEPSVYSA
# notes: LMBD1 (lysosomal membrane protein encoded by LMBRD1), human; GST itself can dimerise; the dimer seen by cross-linking is of the GST fusion; also called LMBD1–GST; source: also reconstituted in liposomes with His-ABCD4
# Tests used:
# [1] = target: the molecule itself; experiment: SEC; purified His-ABCD4 solubilized in β-DDM; size exclusion chromatography, polydisperse profile with a ∼360 kDa major peak
# [2] = target: the molecule itself; experiment: not stated; mutant His-ABCD4 reconstituted in liposomes (Fig. S11B); the text does not name the method
# [3] = target: the molecule itself; experiment: cross-linking; purified His-ABCD4 and LMBD1–GST mixed; SDA and m-maleimidobenzoyl-N-hydroxysuccinimide ester (2 mM each), UV irradiation; immunoblot
# [4] = target: B1; experiment: as above; conditions: both partners purified
binder,measurement,setting,value
B1,stoichiometry N,[1],2
B2,stoichiometry N,[2],2
B3,stoichiometry N,[2],2
B4,stoichiometry N,[3],2
same,stoichiometry N,[4],1
